The results in this text go back to US20230340555A1, “PRODUCTION OF GLYCOSYLATED CANNABINOIDS” (WILLOW BIOSCIENCES, INC., priority 2020, published 2023).

The test has as its system CN3 yeast strain host cells. The test can be described thus: Detection of glycosylated cannabinoids and cannabinoid precursors in yeast cells expressing UDP-glycosyl transferase (HPLC-MS). The format is cell-based. More on the design: key to CBDA-glc / OLA-glc / CBGA-glc / CBGA-(glc)2 / CBD-glc / CBD-(glc)2 / OLA-(glc)2 / CBGA-glucuronic acid: (+) represents the lowest detected quantities; (++), (+++), and (++++) signify relative increasing intermediate detected levels; (++), (+++), and (++++) signify relative increasing intermediate detected levels; (++), (+++), and (++++) signify relative increasing intermediate detected levels; (+++++) represents the highest detected quantities; No detectable levels of a glycosylated cannabinoid compound or glycosylated cannabinoid precursor compound are indicated by “n.d.”. The conditions noted are these: for production of glycosylated cannabinoids or cannabinoid precursor compounds: pellet or supernatant of recombinant yeast host cells transformed with the UGT; for OLA-glc: 20 h growth. An excerpt:
CN3 yeast strain host cells were transformed as described in Example 1 with one of the following heterologous UGT genes: (1) AtUGT73C6, (2) AtUGT73B4, (3) AtUGT71 D1, (4) AtUGT76E12, (5) AtUGT88A1, (6) HaUGT76G1-L, (7) At5g49690, (8) AtUGT76C4, (9) CsUGT73C6, (10) SrUGT76C1, (11) AtUGT85A3, (12) AtUGT73B1, (13) Atg65550, (14) AtUGT76B1, (15) ATUGT76B1, (16) CsUGT75B2, (17) CsUGT73B4, (18) CsUGT73B1, (19) CsUGT75D1-DN11028, and (20) CsUGT71D1-DN48028. The transformed host cells were pre-grown overnight in yeast extract peptone dextrose (YPD) growth medium and then back diluted into yeast extract peptone galactose (YPG) to OD600 = 0.2. […] Strains were incubated for 20 h at 28° C. rotating at 600 RPM in an EPOCH|2 microplate reader (BioTek). Subsequently, samples were treated with an extraction solvent (80 % Acetonitrile, 20 % Methanol) for 1 hour rotating at 100 RPM. After 20 minutes centrifugation at 12,000 RPM, the supernatant was filtered with a basix 13 mm syringe filter (0.22 µm pore size, Nylon membrane) and transferred to a new tube for further analysis.
Glycosylated cannabinoid compounds and glycosylated cannabinoid precursor compounds were assayed in the supernatant and the cellular pellet employing HPLC and HPLC-MS analysis. HPLC and HPLC-MS analysis was carried out as described below to detect the following glycosylated cannabinoid and cannabinoid precursor compounds: CBGA monoglucoside, CBGA diglucoside, CBDA monoglucoside, CBDA diglucoside, CBGA glucuronic acid, CBD monoglucoside, CBD diglucoside, olivetolic acid monoglucoside (“OliAcid monoglucoside”), olivetolic acid diglucoside (“OliAcid diglucoside”).
HPLC analysis was carried out on an Agilent Technologies 1290 Infinity system, consisting of a vacuum degasser, a binary pump, a thermostated autosampler, a thermostated column compartment and a diode array detector (DAD). A Zorbax Eclipse Plus EC-18 column (2.1 × 50 mm, 1.8 µm, Agilent, USA) was used with a mobile phase composed of 0.1% formic acid in both (A) water with 0.2 % Formic Acid and (B) Acetonitrile with 0.2 % Formic Acid. The chromatographic conditions were set as follows: 0.0-8.0 min linear gradient from 5 to 95% B; 8.1-9.09 min […], 9.10-11.0 min 5 to 95% A for equilibration of the column with the initial conditions. The flow rate was set at 0.4 ml/min. The column temperature was set at 40° C. The sample injection volume was 5 µL. The UV/DAD acquisitions were carried out in the range 190-400 nm and chromatograms were acquired at 265 and 350 nm.
HPLC-MS analysis was carried out to confirm the identity of the HPLC peaks using an Agilent Technologies 6530 Accurate-Mass quadrupole time of flight (QToF) mass spectrometer operating in negative ionization (ESI -) mode. The mass spectrometer experimental parameters were set as follows: the capillary voltage was 3.5 kV, the nebulizer (N2) pressure was 35 psi, the drying gas temperature was 350° C., the drying gas flow was 11 L/min and the skimmer voltage was 65 V. Data were acquired by Agilent Mass Hunter software. The mass spectrometer was operated in full-scan mode in the m/z range 50-1100. Extracted ion chromatograms (EICs) were obtained with an accuracy of 10 ppm m/z from total ion chromatogram (TIC) employing the m/z corresponding to the molecular ions [M-H]^- 385.1504 for Olivetolic Acid Mono-Glucoside, 547.2032 for Olivetolic Acid di-Glucoside, 521.2756 for CBGA Mono-Glucoside, 683.3284 for CBGA Di-Glucoside, 535.2549 for CBGA Glucuronic Acid, 519.2600 for CBDA Mono-Glucoside, 475.2701 for CBD Mono-Glucoside, 637.3302 for CBD Di-Glucoside.
The glycosylated cannabinoid compounds and glycosylated cannabinoid precursor compounds were detected in a relative and semi-quantitative fashion. […]

B1: CsUGT71 D1-DN48028: UDP-glycosyl transferase from Cannabis sativa, amino acid sequence SEQ ID NO: 40 (protein, listed as Cannabis sativa)
chain: MARVELVFIPAPAIGHLVSTLEFAKRLIHYDHRLFITVLCEFSLKSHLDAYIDSLVASLSLAHRIKLVHLPLVDSPPVELLKSIENFIYQYMESLVPHVRKALTDIVSSNSNYSQGDVVLVLDFFCMPMMDVANELGLPSYMFMTSNLGLLSLMFYLATRHNQISSELEESDAPLRLQGFQNPVPSSVLPTAAFCKDGGYSAYVKLAQRFRETKGIIVNSFEELESYSFSSMNDGAETPPIYMVGPVLDLNGQPHPSMDQVQNDKILKWLDEQPHSSVVFLCFGSMGKFGASQLREIASGLQRSGHRFLWSVRVQQPTTIDEILPEGFLEQIGSKGMICNEWAPQVKILAHSAVGGFLSHCGWNSILESLWYGVPVATWPIYAEQQLNAFRMVREFGLAVDLRLDYKDRGDDHIVSAEEIETAVKHLMEGDKEVRKKVKEMSETARKSVEEGGSSFTAIGKLINSIIGSNYY
Consider B1, for which the “production of glycosylated cannabinoids or cannabinoid precursor compounds” value (“production” for short) was “No production”.

B2: AtUGT85A3: UDP-glycosyl transferase from Arabidopsis thaliana, amino acid sequence SEQ ID NO: 22 (protein, listed as Arabidopsis thaliana)
chain: MGSRFVSNEQKPHVVCVPYPAQGHINPMMKVAKLLHVKGFHVTFVNTVYNHNRLLRSRGANALDGLPSFQFESIPDGLPETGVDATQDIPALSESTTKNCLVPFKKLLQRIVTREDVPPVSCIVSDGSMSFTLDVAEELGVPEIHFWTTSACGFMAYLHFYLFIEKGLCPVKDASCLTKEYLDTVIDWIPSMNNVKLKDIPSFIRTTNPNDIMLNFVVREACRTKRASAIILNTFDDLEHDIIQSMQSILPPVYPIGPLHLLVNREIEEDSEIGRMGSNLWKEETECLGWLNTKSRNSVVYVNFGSITIMTTAQLLEFAWGLAATGKEFLWVMRPDSVAGEEAVIPKEFLAETADRRMLTSWCPQEKVLSHPAVGGFLTHCGWNSTLESLSCGVPMVCWPFFAEQQTNCKFSCDEWEVGIEIGGDVKRGEVEAVVRELMDGEKGKKMREKAVEWRRLAEKATKLPCGSSVINFETIVNKVLLGKIPNT
As for B2, the “production” value is recorded as “No production”.

B3: CsUGT73C6: UDP-glycosyl transferase from Cannabis sativa, amino acid sequence SEQ ID NO: 16 (protein, listed as Cannabis sativa)
chain: MASEPYKLHLIVIPFMAPGHFIPMADMARKLAEHGAMITLITLPVIAARIRPIIEQATENSNLKIQLVQVSLPLHEFGLPEGCDTVDLVPSRNLLLSFFIALDELQQPIEQVVSELKPRPSCIIADKHLPWTAEIATKFGIPRVLFDGMSCFSLLCNHMIRKSQVHLSVPMSVPFVVPGMPDHLEFTRNQLAADLYPNLEFGQKFHDRIRESEEGADGFLVNSFEELEWKYVEGYRKEKVGKAWCIGPVSLFNKTKLEVAQRGNNPAGAVDEKQCTEWLDSWPKSCVVYACLGSVSRLLIPQMIELGVALEASNKPFIWVIRGYDQEEEIEKWISESGFKERTKSRALLIFGWAPQVLILSHSSVGGFLTHCGWNSTLEGITYGKPMITWPMFAEQFYNQKLIVQVLKVGESVGPKFVVPYGREEEFGVFVLSKDILEAIEKVMAQDKEGEERRERVKRLSDMAQKAIEEGGSSYLDMKLFIEDIRNLHIS
In the case of B3, the “production” value was “detectable”. Further, where the note is “detected in PELLET, 0.05 mM hexanoic acid”, the OLA-glc result was “++”. The OLA-glc result (detected in SUPERNATANT, 0.2 mM hexanoic acid) is listed as “++”.

B4: AtUGT73B1: UDP-glycosyl transferase from Arabidopsis thaliana, amino acid sequence SEQ ID NO: 24 (protein, listed as Arabidopsis thaliana)
chain: MGVFGSNESSSMSIVMYPWLAFGHMTPFLHLSNKLAEKGHKIVFLLPKKALNQLEPLNLYPNLITFHTISIPQVKGLPPGAETNSDVPFFLTHLLAVAMDQTRPEVETIFRTIKPDLVFYDSAHWIPEIAKPIGAKTVCFNIVSAASIALSLVPSAEREVIDGKEMSGEELAKTPLGYPSSKVVLRPHEAKSLSFVWRKHEAIGSFFDGKVTAMRNCDAIAIRTCRETEGKFCDYISRQYSKPVYLTGPVLPGSQPNQPSLDPQWAEWLAKFNHGSVVFCAFGSQPVVNKIDQFQELCLGLESTGFPFLVAIKPPSGVSTVEEALPEGFKERVQGRGVVFGGWIQQPLVLNHPSVGCFVSHCGFGSMWESLMSDCQIVLVPQHGEQILNARLMTEEMEVAVEVEREKKGWFSRQSLENAVKSVMEEGSEIGEKVRKNHDKWRCVLTDSGFSDGYIDKFEQNLIELVKS
For the molecule B4, the “production” value is “No production”.

B5: CsUGT75D1-DN11028: UDP-glycosyl transferase from Cannabis sativa, amino acid sequence SEQ ID NO: 38 (protein, listed as Cannabis sativa)
chain: MKRTLLFIPSPGIGHLVSMLEFAKRLIQYDDRLFITILSMKFPNHDAYINSLVPSLSQSRVKLAHLPQVDPPPPKLLNSPESYIYVYVESLVPHVRDALKHIVPSHSNSETTHSQGCFVMVLDFFCMPMMDVANELGLPSYMFMPSNIGFLSSMLYLATRHDQISSELKESNPDEYSLKSFHNPVPWSALPQAYFCKDGGYSACVKMAQRFRETKGIIVNSFEGLEAHGATSFNDGETPPIYMVGPVVNFKGQPHSSTDHVQNNRIFKWLDEQPQSSVVFLCFASLGTFDASQLREIASGLECSGHRFLWCIRVQQPTIIDEILPEGFLERIGSKGMICNEWTPQVEVLAHNAVGGFVSHCGWNSILESLWYGVPIVTWPVYAEQQLNAFQMVREFDLAIELRLDYRNRGHNQLVTAEEIGNAIKKLMEGDHNVVMRKKGASGISSMVLSRFYTCKENVVLRQDPRWFAIKAGGEEK
Take B5: the “production” value is reported as “No production”.

B6: At5g65550: UDP-glycosyl transferase from Arabidopsis thaliana, amino acid sequence SEQ ID NO: 26 (protein, listed as Arabidopsis thaliana)
chain: MAEPKPKLHVAVFPWLALGHMIPYLQLSKLIARKGHTVSFISTARNISRLPNISSDLSVNFVSLPLSQTVDHLPENAEATTDVPETHIAYLKKAFDGLSEAFTEFLEASKPNWIVYDILHHWVPPIAEKLGVRRAIFCTFNAASIIIIGGPASVMIQGHDPRKTAEDLIVPPPWVPFETNIVYRLFEAKRIMEYPTAGVTGVELNDNCRLGLAYVGSEVIVIRSCMELEPEWIQLLSKLQGKPVIPIGLLPATPMDDADDEGTWLDIREWLDRHQAKSVVYVALGTEVTISNEEIQGLAHGLELCRLPFFWTLRKRTRASMLLPDGFKERVKERGVIWTEWVPQTKILSHGSVGGFVTHCGWGSAVEGLSFGVPLIMFPCNLDQPLVARLLSGMNIGLEIPRNERDGLFTSASVAETIRHVVVEEEGKIYRNNAASQQKKIFGNKRLQDQYADGFIEFLENPIAGV
On to B6, for which the “production” value is “No production”.
